Measured values from paper PMC9159911.

Tested on: SmpB (small protein B) (Aeromonas veronii)
Assay: MST
Conditions: […], pH 7.4), temperature not stated, binding buffer not stated

Row | Substance | Kd
1 | PompA T52GC (CAT at +52 to TGC) | 126 µM
2 | PompA C52AT (native ompA promoter fragment) | 0.93 µM
